1 molecule from article PMC5066947, “Voltage-Dependent Anion Channel-1, a Possible Ligand of Plasminogen Kringle 5” (PLoS ONE, 2016) can be followed below.

The assay concerns the target T1, recombinant voltage-dependent anion channel-1 (human, UniProt P21796 1-283).
T1 construct: human voltage-dependent anion channel-1; cDNA amplified from pCMV6-XL5-VDAC-1 with primers designed on NM_003374, cloned into pET-28b by XhoI and NheI; band at about 32 kDa on SDS-PAGE; also called VDAC-1; hVDAC-1
As to the kind of experiment: SPR; Kringle 5 coupled to a CM5 sensor chip by amino coupling (180 RU); VDAC-1 injected at 0 to 280.00 μmol·L^-1; uncoupled cell as reference; 25°C, 40 μl·min^-1; regeneration with 10 mmol·L^-1 HEPES pH 7.4, 300 mmol·L^-1 NaCl. As to conditions: both partners purified. In general terms: SPR reads the build-up and loss of mass on a sensor chip optically.

T1 sequence (P21796 whole entry): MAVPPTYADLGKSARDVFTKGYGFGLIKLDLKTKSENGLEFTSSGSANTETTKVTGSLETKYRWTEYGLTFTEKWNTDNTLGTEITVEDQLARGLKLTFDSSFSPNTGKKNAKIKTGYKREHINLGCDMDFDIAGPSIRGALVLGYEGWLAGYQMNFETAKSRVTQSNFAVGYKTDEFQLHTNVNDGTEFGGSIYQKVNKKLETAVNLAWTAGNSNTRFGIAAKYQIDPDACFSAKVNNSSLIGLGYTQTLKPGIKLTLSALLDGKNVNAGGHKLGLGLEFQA

B1: recombinant plasminogen Kringle 5 (domain or fragment, human)
chain: DCMFGNGKGYRGKRATTVTGTPCQDWAAQEPHRHSIFTPETNPRAGLEKNYCRNPDGDVGGPWCYTTNPRKLYDYCDVPQCAAP
notes: fifth kringle domain of plasminogen, about 80 amino acid residues; expressed from pET-28b-hK5; band at about 8 kDa on SDS-PAGE; The vector pET-28b-hK5 was built in the authors' laboratory; neither the residue limits nor the end of the 6 x His tag are told; also called hK5; source: E. coli BL21 (DE3), soluble, purified (Ni2+-chelated Sepharose 6 Fast Flow, Sephadex G-25)
With B1, the Ka was found to be 2430 M⁻¹.
